Laboratory results reported in IntAct's records for PubMed 25332407.

B1: Nuclear distribution protein nudE homolog 1 (Homo sapiens), Q9NXR1 (parent)
chain: MEDSGKTFSSEEEEANYWKDLAMTYKQRAENTQEELREFQEGSREYEAELETQLQQIETRNRDLLSENNRLRMELETIKEKFEVQHSEGYRQISALEDDLAQTKAIKDQLQKYIRELEQANDDLERAKRATIMSLEDFEQRLNQAIERNAFLESELDEKENLLESVQRLKDEARDLRQELAVQQKQEKPRTPMPSSVEAERTDTAVQATGSVPSTPIAHRGPSSSLNTPGSFRRGLDDSTGGTPLTPAARISALNIVGDLLRKVGALESKLASCRNLVYDQSPNRTGGPASGRSSKNRDGGERRPSSTSVPLGDKGLDTSCRWLSKSTTRSSSSC

Variants of: B1
Conditions: with 1433e_human YWHAE

Question: How did the “effect of a mutation on the interaction” value turn out when S214A was run?
Answer: Its value is “with no effect”.

Question: For S214F, which “effect of a mutation on the interaction” value is on record?
Answer: The value was “decreasing interaction strength”.

Question: T215A was tested. Which “effect of a mutation on the interaction” value did it give?
Answer: Its value is “decreasing interaction strength”.

Question: For R234C, which “effect of a mutation on the interaction” value is on record?
Answer: The value was “with no effect”.
